Test results reported in PMC6715661, “Cardiac MLC2 kinase is localized to the Z-disc and interacts with α-actinin2” (Scientific Reports, 2019).

Target: T1, Myc-α-actinin2, full length, expressed in HEK293 cells (mouse, UniProt Q9JI91 1-894)
T1 construct: α-actinin2, cloned by RT-PCR from RNA of neonatal mouse hearts into pAdlox (pAdlox-Myc-α-actinin2), full length; also called Myc-tagged full-length α-actinin2; source: HEK293 cells, exogenous expression, in lysate (co-IP); purified from HEK293 cells (BLI)
Assay: BLI; Octet RED384, 30 °C; biotinylated anti-Myc antibody on streptavidin biosensors captures Myc-α-actinin2 (10 μg/ml, 100 nM); HA-cMLCK in solution, two-fold dilutions from 14 to 1.75 μg/ml; 20 mM Tris, 150 mM NaCl, 0.002% Tween, pH 7.3; global fit, 2:1 heterogeneous ligand analysis
Details: both partners purified

T1 sequence (Q9JI91 whole entry): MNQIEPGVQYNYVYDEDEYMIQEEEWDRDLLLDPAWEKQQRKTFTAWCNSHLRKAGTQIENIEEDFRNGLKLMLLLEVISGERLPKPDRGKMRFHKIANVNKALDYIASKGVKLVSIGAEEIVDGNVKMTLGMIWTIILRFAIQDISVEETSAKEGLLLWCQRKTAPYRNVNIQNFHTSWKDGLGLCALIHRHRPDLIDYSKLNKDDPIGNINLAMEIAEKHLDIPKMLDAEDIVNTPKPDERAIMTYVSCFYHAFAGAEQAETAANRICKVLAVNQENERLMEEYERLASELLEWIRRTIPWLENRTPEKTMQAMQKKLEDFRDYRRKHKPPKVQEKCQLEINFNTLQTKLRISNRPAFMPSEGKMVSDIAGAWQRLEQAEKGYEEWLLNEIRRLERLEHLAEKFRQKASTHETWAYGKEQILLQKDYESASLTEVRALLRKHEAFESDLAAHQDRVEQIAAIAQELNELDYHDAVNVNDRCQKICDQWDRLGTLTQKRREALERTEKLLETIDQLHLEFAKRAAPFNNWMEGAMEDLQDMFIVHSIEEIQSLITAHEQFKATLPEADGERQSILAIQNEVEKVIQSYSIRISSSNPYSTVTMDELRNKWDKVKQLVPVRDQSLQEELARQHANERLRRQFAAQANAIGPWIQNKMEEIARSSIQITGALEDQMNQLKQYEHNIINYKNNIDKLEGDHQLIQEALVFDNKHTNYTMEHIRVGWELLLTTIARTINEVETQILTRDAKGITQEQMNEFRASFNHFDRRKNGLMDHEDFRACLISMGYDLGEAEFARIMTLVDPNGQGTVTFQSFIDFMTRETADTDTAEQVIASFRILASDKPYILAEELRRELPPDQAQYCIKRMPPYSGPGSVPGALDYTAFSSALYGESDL

- Kd: 13.4 nM
- koff: 0.000341 s⁻¹
- kon: 25800 M⁻¹ s⁻¹
B1: HA-cMLCK, full length, expressed in HEK293 cells (enzyme, mouse, UniProt Q3UIZ8 1-795, looked up)
chain: MSGVSEEDPEGLAPQGLPALGGACLATMDKKLNVLTEKVDRLLHFQEDVTEKLQCVCQGMDHLEQDLHRLEASRELSLAGSGSTPPTTAQAAWPEVLELVRAVRQEGAQHGARLEALFKMVVAVDRAITLVGSTFQNSKVADFIMQGTVPGRKGSLADGPEENKEQAEVAGVKPNHVLTTGGVQADASRTLWEESQKEDIPVRTVEGLPLIINTSLKGADLTQAGASLRQGVEVLGPGQVPLPTEAESRLPETASENTGATLELSVAIDRISEVLTSLKMSQGGGQETSSSKPDCWLSEEAMRLSSGPLPQPLGPLTPDSDIHSGDALPRIPINMQEMATPGELLETQSGSPIGSAEAPGLGTVLEDQIPKGARPFPPLPKRSSNNGGMSAEEEIGSGAEPMRGPSLATRDWRDETVGTTDLQQGIDPGAVSPEPGKDHAAQGPGRTEAGRLSSAAEAAIVVLDDSAAPPAPFEHRVVSIKDTLISAGYTVSQHEVLGGGRFGQVHRCTERSTGLALAAKIIKVKNVKDREDVKNEVNIMNQLSHVNLIQLYDAFESKSSFTLIMEYVDGGELFDRITDEKYHLTELDVVLFTRQICEGVHYLHQHYILHLDLKPENILCVSQTGHQIKIIDFGLARRYKPREKLKVNFGTPEFLAPEVVNYEFVSFPTDMWSVGVITYMLLSGLSPFLGETDAETMNFIVNCSWDFDADTFKGLSEEAKDFVSRLLVKEKSCRMSATQCLKHEWLSHLPAKASGSNVRLRSQQLLQKYMAQSKWKKHFHVVTAVNRLRKFPTCP
notes: cardiac myosin light chain kinase (cMLCK), mouse, full length (residues to 795 by the printed deletion constructs); also called HA-MLCK; HA-full-length cMLCK; source: HEK293 cells, exogenous expression, in lysate (co-IP); purified (BLI)
